# Laboratory results as given in patent CN117126283A (SHENZHEN NEW IND BIOMEDICAL ENGINEERING CO LTD, dated 2023).
# T1: α2-纤溶酶抑制剂(α2-AP) (UniProt P08697 40-491, limits assumed)
# T1 construct: also called α2-antiplasmin; 游离态的α2-AP
# T1 sequence (looked up): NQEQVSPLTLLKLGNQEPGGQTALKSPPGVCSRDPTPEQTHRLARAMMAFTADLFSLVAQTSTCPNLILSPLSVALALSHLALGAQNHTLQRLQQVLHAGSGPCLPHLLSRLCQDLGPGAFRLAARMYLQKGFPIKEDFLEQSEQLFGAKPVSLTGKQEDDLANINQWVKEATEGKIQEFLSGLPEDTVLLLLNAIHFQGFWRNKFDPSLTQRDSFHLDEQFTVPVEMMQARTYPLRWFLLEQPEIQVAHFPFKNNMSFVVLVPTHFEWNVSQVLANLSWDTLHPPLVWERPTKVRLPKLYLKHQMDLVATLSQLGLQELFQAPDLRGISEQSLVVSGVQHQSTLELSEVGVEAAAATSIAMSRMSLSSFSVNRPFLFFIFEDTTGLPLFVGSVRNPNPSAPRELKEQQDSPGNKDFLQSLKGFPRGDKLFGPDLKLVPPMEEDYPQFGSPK
# Experiments:
# 纤溶酶原(Plg) = target: T2, 纤溶酶原(Plg) (UniProt P00747 20-810); assay: summing-up of the examples (ELISA specificity, Example 4; table 2 not shown)
# T2 construct: Free precursor, used as coating antigen in ELISA; also called Plasminogen; 游离态的Plg
# α2-纤溶酶抑制剂(α2-AP) = target: T1, α2-纤溶酶抑制剂(α2-AP); assay: as above
# 纤溶酶-α2纤溶酶抑制剂复合物(PIC) = target: T3, 纤溶酶-α2纤溶酶抑制剂复合物(PIC) (UniProt P00747 97-810; P08697 40-491, limits assumed); assay: SPR (BIAcore 3000), antibody captured by goat anti-mouse IgG Fc on CM5, PIC as analyte
# T3 construct: also called PIC抗原; PIC复合物
# T3 sequence (P00747 97-810 limits assumed, one chain of several): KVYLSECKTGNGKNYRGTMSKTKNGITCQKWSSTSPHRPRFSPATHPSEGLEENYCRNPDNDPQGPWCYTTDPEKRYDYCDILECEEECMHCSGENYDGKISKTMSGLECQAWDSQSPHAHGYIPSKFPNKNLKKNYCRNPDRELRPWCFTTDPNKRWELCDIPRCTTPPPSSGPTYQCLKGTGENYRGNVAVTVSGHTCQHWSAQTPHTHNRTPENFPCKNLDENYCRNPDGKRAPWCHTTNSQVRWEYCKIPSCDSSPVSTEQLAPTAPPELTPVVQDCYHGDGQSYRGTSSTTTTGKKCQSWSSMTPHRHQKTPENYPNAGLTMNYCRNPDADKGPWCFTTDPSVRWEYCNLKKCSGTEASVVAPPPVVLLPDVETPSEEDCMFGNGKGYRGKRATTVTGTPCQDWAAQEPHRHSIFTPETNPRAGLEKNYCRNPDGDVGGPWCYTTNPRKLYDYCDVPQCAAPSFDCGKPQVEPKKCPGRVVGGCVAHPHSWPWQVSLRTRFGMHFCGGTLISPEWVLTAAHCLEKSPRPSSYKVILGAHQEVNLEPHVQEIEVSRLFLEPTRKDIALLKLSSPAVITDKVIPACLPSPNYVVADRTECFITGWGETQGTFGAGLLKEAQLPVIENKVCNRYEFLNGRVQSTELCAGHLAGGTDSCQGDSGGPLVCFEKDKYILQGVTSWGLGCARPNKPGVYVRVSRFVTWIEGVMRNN
# T2 sequence (P00747 20-810 limits assumed): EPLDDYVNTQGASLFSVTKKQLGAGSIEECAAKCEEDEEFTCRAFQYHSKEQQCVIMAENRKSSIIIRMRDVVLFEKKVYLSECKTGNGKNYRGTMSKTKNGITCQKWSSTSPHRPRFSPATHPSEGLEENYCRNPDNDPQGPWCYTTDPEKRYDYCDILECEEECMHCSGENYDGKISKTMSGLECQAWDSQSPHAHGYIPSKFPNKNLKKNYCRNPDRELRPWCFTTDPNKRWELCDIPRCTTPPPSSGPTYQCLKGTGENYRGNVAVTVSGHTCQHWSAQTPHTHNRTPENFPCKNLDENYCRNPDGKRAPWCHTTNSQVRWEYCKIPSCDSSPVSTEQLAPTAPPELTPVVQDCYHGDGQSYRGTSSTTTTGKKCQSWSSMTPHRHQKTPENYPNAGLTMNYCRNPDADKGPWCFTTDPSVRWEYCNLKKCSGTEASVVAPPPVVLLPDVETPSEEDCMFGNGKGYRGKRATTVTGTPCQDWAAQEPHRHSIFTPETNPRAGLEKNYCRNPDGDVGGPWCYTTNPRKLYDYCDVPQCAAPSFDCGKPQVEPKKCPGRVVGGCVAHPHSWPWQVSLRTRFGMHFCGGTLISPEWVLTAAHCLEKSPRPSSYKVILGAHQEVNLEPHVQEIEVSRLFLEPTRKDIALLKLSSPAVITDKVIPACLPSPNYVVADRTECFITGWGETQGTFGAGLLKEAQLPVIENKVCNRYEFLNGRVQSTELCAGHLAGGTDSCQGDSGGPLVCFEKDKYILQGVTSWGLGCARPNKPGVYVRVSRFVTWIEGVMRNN
binding result (纤溶酶原(Plg)),binding result (α2-纤溶酶抑制剂(α2-AP)),Kd (纤溶酶-α2纤溶酶抑制剂复合物(PIC)) [nM],koff (纤溶酶-α2纤溶酶抑制剂复合物(PIC)) [s⁻¹],kon (纤溶酶-α2纤溶酶抑制剂复合物(PIC)) [M⁻¹ s⁻¹],Binder
no binding,no binding,1.29,8.54e-05,65900,"PIC抗体(WT1) (antibody, mouse IgG1, kappa, V domains shown, that VL1/VH1 belong to 1C2B4 (WT1) follows from the order of naming, not from an explicit sentence; also called 1C2B4; PIC单抗(WT1)) VH: QVQLQQSGPELVKPGASVKLSCKASGNAFSSSWMNWVKQRPGQGLEWIGRIYPGDGDTNYNGKFKGKATLTVDKSSSTVYMQLSSLTSVDSAVYFCGRGNPTTAYAMDYWGQGTSVTVSS VL: DIVLTQSPASLAVSLGQRATLSCRASESVDSFGYSFMHWYQQNPGQPPKLLIYRASNLESGIPARFSGSGSRTDFTLTINPVEADDVATYFCQQTNEDPYTFGGGAKLEIKR"
no binding,no binding,1.21,9.54e-05,78900,"PIC抗体(WT2) (antibody, mouse IgG1, kappa, V domains shown, That VL2/VH2 belong to 5B3F6 (WT2) follows from the order of naming, not from an explicit sentence; also called 5B3F6; PIC单抗(WT2)) VH: QVQLQQPGAELVRPGASVKLSCKASGYTFTSSWMHWVKQRPEQGLEWIGYIDPYDSETHYNQKFKDKAILTVDKSSSTAYMQLSSLTSEDSAVYYCARGYDRSFDYWGQGTTLTVSS VL: DIKMTQSPSSMFASLGERVTITCKASQDIKSFLNWYQQKPWRSPKTLIYYATSLADGVPSRFSGSGSGQDFSLTISSLESDDAATYYCLQHGESPFTFGGGTKLEIKR"
